Our source for the pDCs (% of total cells remaining in culture), 4h, 10 µg/ml antibody on human PBMC (% of total cells remaining in culture), pDCs (% of total cells remaining in culture), 24h, 10 µg/ml antibody on human PBMC (% of total cells remaining in culture) and pDCs (% of total cells remaining in culture), 48h, 10 µg/ml antibody on human PBMC (% of total cells remaining in culture) values is EP2536430B1.

This assay addresses interleukin 3 receptor α (IL-3Rα) chain on human pDCs and basophils (human) (UniProt P26951). The assay is described as follows: cell-based or functional assay.
UniProt P26951, sequence (P26951 20-378): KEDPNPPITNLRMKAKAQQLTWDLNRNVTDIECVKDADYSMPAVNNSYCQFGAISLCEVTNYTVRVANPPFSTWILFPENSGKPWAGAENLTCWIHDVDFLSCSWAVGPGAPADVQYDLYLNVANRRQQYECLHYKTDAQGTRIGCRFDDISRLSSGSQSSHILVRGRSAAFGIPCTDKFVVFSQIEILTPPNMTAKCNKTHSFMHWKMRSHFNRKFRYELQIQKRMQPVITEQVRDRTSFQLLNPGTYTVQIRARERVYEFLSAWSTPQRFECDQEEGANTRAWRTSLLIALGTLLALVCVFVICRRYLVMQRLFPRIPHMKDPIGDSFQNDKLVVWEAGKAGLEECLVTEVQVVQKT

The substance “ch7G3 (chimeric version of 7G3 with a human IgG1 constant domain) (antibody)” displayed a pDCs (% of total cells remaining in culture), 4h, 10 µg/ml antibody on human PBMC (% of total cells remaining in culture) of 0.1; a pDCs (% of total cells remaining in culture), 24h, 10 µg/ml antibody on human PBMC (% of total cells remaining in culture) of 0.02; a pDCs (% of total cells remaining in culture), 48h, 10 µg/ml antibody on human PBMC (% of total cells remaining in culture) of 0.005.
